Data on 1 protein can be found in PMC4865677, “Dataset of gene cloning and gel filtration chromatography of R-est6” (Data in Brief, 2016).

The data set concerns the molecule itself. The data set is described as follows: SEC; Ni-NTA affinity purified R-est6 loaded on a Superdex 75 column calibrated with known molecular weight markers; protein in peak 1 and peak 2 confirmed as R-est6 on SDS-PAGE.

B1: R-est6, family 6 carboxylesterase from Methylococcus capsulatus (bath) (enzyme, Methylococcus capsulatus (bath strain), UniProt Q60CN0 1-336, looked up)
chain: MSTFDRGFARLLLEICRYTYAKAFALAPEEGDALQWIEQQGGKPDPASLEPIRGGDTSVACVFRYPDKNVVAYMGTKTEFDNAVNAKDSIEDWLNNFRAAPVPFKLGKEHLGLDKEVELPGRVHAGFLSELKAVQAKVIDVLSKNGGKDKPLYLTGHSQGGAEATLATVALLAGGFKVAATYTFAAPRAGDRTFADAVPAEFPFHRIEFGDDIVPHVPPTLLSRWVKTLVTVPRHLPLKRFGVPVKVNEFLELSVHDLGYVGVGRLCYGNHESGQLHVDMSVRQEASLFLGRLTRLLRHPEHWAEHHHLAGTRAEVSAGKKGNYTALVSDFPIVEG
notes: also called MCA0075
Regarding B1, the binding result is on record as “binds”.
